Experimental data from patent US5747321.

Target: fused protein β-gal97S4DhCNP-22R5-3 (human) (UniProt P23582)

With “natural V8 protease (Staphylococcus aureus V8 protease) (from UniProt P0C1U8) (enzyme)” as the substance, how does the cleavage efficiency (proportion of fused protein cleaved) read?
Its cleavage efficiency (proportion of fused protein cleaved) is 60%.
